This assay addresses T1, Signal peptide peptidase (SPP), human, with a C-terminal myc-tag (human), Q8TCT9.
T1 chain: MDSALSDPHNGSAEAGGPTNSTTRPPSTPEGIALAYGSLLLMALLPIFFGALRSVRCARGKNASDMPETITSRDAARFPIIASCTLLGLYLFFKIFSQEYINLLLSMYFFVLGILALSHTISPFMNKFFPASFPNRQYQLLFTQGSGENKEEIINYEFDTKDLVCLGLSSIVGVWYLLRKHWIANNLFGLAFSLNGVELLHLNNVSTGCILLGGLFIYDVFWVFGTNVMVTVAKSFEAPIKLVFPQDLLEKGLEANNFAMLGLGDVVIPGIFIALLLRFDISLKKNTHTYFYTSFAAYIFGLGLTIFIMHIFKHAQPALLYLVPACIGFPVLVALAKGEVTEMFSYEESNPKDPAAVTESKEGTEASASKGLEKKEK
Kind of assay: SDS-PAGE and Western blot of cell lysate; lysate of transfected HEK cells (50 mM Tris/HCl pH 7.4, 150 mM NaCl, 1% Triton X-100, 0.1% SDS); SDS-PAGE with tris-glycine buffer; SPP band at the size of a dimer. Conditions: remark: other sources report otherwise. Background: In western blotting, separated proteins are transferred to a membrane and probed.

Consider one molecule from PMC11904002.

B1: Signal peptide peptidase (SPP), human, with a C-terminal myc-tag, Q8TCT9-1 1-377 (enzyme)
chain: MDSALSDPHNGSAEAGGPTNSTTRPPSTPEGIALAYGSLLLMALLPIFFGALRSVRCARGKNASDMPETITSRDAARFPIIASCTLLGLYLFFKIFSQEYINLLLSMYFFVLGILALSHTISPFMNKFFPASFPNRQYQLLFTQGSGENKEEIINYEFDTKDLVCLGLSSIVGVWYLLRKHWIANNLFGLAFSLNGVELLHLNNVSTGCILLGGLFIYDVFWVFGTNVMVTVAKSFEAPIKLVFPQDLLEKGLEANNFAMLGLGDVVIPGIFIALLLRFDISLKKNTHTYFYTSFAAYIFGLGLTIFIMHIFKHAQPALLYLVPACIGFPVLVALAKGEVTEMFSYEESNPKDPAAVTESKEGTEASASKGLEKKEK
Turning to B1, the stoichiometry N (commonly the number of molecules, sites or subunits per partner or assembly) is 2.
